According to US20070072239A1 (Pfizer, published 2007):
Positions count from the first letter of the chain named.

Molecular target: T1, Wnt3 (human, UniProt P56703 22-355 at identity 1.00), limits assumed)
T1 chain: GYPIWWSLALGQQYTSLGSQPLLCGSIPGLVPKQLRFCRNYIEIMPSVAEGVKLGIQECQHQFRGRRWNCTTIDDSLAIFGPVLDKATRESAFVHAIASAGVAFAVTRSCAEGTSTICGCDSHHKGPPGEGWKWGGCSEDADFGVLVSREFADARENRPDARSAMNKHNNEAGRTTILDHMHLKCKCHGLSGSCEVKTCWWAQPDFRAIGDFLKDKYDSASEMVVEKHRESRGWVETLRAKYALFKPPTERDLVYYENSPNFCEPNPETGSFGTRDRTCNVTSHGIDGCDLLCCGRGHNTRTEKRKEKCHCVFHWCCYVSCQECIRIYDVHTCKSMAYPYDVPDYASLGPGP
Test: cell-based or functional assay

B1: truncated SFRP-1 (Δ167-314) containing the CRD alone (receptor)
chain: SEYDYVSFQSDIGPYQSGRFYTKPPQCVDIPADLRLCHNVGYKKMVLPNLLEHETMAEVKQQASSWVPLLNKNCHAGTQVFLCSLFAPVCLDRPIYPCRWLCEAVRDSCEPVMQFFGFYWPEMLKCDKFPEGDVC
  Wnt antagonist activity relative to full length SFRP-1 (TCF-Luciferase reporter, U2OS cells): ~80 % of full length SFRP-1 activity

B2: SFRP-1/SFRP-2(1-226)/(214-295) chimera (receptor)
chain: SEYDYVSFQSDIGPYQSGRFYTKPPQCVDIPADLRLCHNVGYKKMVLPNLLEHETMAEVKQQASSWVPLLNKNCHAGTQVFLCSLFAPVCLDRPIYPCRWLCEAVRDSCEPVMQFFGFYWPEMLKCDKFPEGDVCIAMTPPNATEASKPQGTTVCPPCDNELKSEAIIEHLCASEFALRMKIKEVKKENGDKKIVLETKSKTIYKLNGVSERDLKKSVLWLKDSLQCTCEEMNDINAPYLVMGQKQGGELVITSVKRWQKGQREFKRISRSIRKLQC
  loss of Wnt3 antagonist activity relative to SFRP-1 (TCF-Luciferase reporter): ~40 % loss of activity

B3: SFRP-1/SFRP-2 (1-248/238-295) chimera (receptor)
chain: SEYDYVSFQSDIGPYQSGRFYTKPPQCVDIPADLRLCHNVGYKKMVLPNLLEHETMAEVKQQASSWVPLLNKNCHAGTQVFLCSLFAPVCLDRPIYPCRWLCEAVRDSCEPVMQFFGFYWPEMLKCDKFPEGDVCIAMTPPNATEASKPQGTTVCPPCDNELKSEAIIEHLCASEFALRMKIKEVKKENGDKKIVPKKKKPLKLGPIKKKDLKKLVLWLKDSLQCTCEEMNDINAPYLVMGQKQGGELVITSVKRWQKGQREFKRISRSIRKLQC
  loss of Wnt3 antagonist activity relative to SFRP-1 (TCF-Luciferase reporter): ~40 % loss of activity

B4: 3' His tagged SFRP-1 (receptor)
chain: SEYDYVSFQSDIGPYQSGRFYTKPPQCVDIPADLRLCHNVGYKKMVLPNLLEHETMAEVKQQASSWVPLLNKNCHAGTQVFLCSLFAPVCLDRPIYPCRWLCEAVRDSCEPVMQFFGFYWPEMLKCDKFPEGDVCIAMTPPNATEASKPQGTTVCPPCDNELKSEAIIEHLCASEFALRMKIKEVKKENGDKKIVPKKKKPLKLGPIKKKDLKKLVLYLKNGADCPCHQLDNLSHHFLIMGRKVKSQYLLTAIHKWDKKNKEFKNFMKKMKNHECPTFQSVFKHHHHHH
  loss of Wnt inhibitory function relative to SFRP-1 (TCF-Luciferase reporter) (% loss of function): 30

B5: human SFRP-2 (receptor)
chain: LFLFGQPDFSYKRSNCKPIPANLQLCHGIEYQNMRLPNLLGHETMKEVLEQAGAWIPLVMKQCHPDTKKFLCSLFAPVCLDDLDETIQPCHSLCVQVKDRCAPVMSAFGFPWPDMLECDRFPQDNDLCIPLASSDHLLPATEEAPKVCEACKNKNDDDNDIMETLCKNDFALKIKVKEITYINRDTKIILETKSKTIYKLNGVSERDLKKSVLWLKDSLQCTCEEMNDINAPYLVMGQKQGGELVITSVKRWQKGQREFKRISRSIRKLQC
  inhibition of Wnt3-mediated upregulation of the 16xTCF-Luciferase activity, relative to SFRP-1 (% less active): 25

B6: SFRP-1/SFRP-2(1-295/285-295) chimera (receptor)
chain: SEYDYVSFQSDIGPYQSGRFYTKPPQCVDIPADLRLCHNVGYKKMVLPNLLEHETMAEVKQQASSWVPLLNKNCHAGTQVFLCSLFAPVCLDRPIYPCRWLCEAVRDSCEPVMQFFGFYWPEMLKCDKFPEGDVCIAMTPPNATEASKPQGTTVCPPCDNELKSEAIIEHLCASEFALRMKIKEVKKENGDKKIVPKKKKPLKLGPIKKKDLKKLVLYLKNGADCPCHQLDNLSHHFLIMGRKVKSQYLLTAIHKWDKKNKEFKRISRSIRKLQC
  Wnt3 inhibitory activity relative to SFRP-1 (TCF-Luciferase reporter): ~20 % of SFRP-1 activity
  loss of Wnt3 antagonist activity relative to SFRP-1 (TCF-Luciferase reporter): ~70 % loss of activity

B7: human SFRP-3 (receptor)
chain: AACEPVRIPLCKSLPWNMTKMPNHLHHSTQDNAILAIEQFEGLLGTHCSPDLLFFLCAMYAPICTIDFQHEPIKPCKSVCERARQGCEPILIKYRHSWPENLACEELPVYDRGVCISPEAIVTADGADFPMDSSNGNCRGASSERCKCKPIRATQKTYFRNNYNYVIRAKVKEIKTKCHDVTAVVEVKEILKSSLVNIPRDTVNLYTSSGCLCPPLNVNEEYIIMGYEDEERSRLLLVEGSIAEKWKDRLGKKVKRWDMKLRHLGLSKSDSSNSDSTQSQKSGRNSNPRQARN
  Wnt3 antagonist function relative to SFRP-1 (TCF-Luciferase reporter) (% less active): 60

B8: hOB SFRP-1 (human osteoblast secreted frizzled-related protein-1), wild-type full length (receptor)
chain: SEYDYVSFQSDIGPYQSGRFYTKPPQCVDIPADLRLCHNVGYKKMVLPNLLEHETMAEVKQQASSWVPLLNKNCHAGTQVFLCSLFAPVCLDRPIYPCRWLCEAVRDSCEPVMQFFGFYWPEMLKCDKFPEGDVCIAMTPPNATEASKPQGTTVCPPCDNELKSEAIIEHLCASEFALRMKIKEVKKENGDKKIVPKKKKPLKLGPIKKKDLKKLVLYLKNGADCPCHQLDNLSHHFLIMGRKVKSQYLLTAIHKWDKKNKEFKNFMKKMKNHECPTFQSVFK
  inhibition of the Wnt-mediated upregulation of the 16xTCF-Luciferase reporter in U2OS cells: 90 % inhibition

B9: SFRP-1 tyrosine 73 to serine mutant (receptor)
chain: B8 chain with Y42S
  Wnt antagonist function compared to the wild type SFRP-1 (TCF-Luciferase reporter) (% of wild type SFRP-1): 40

B10: SFRP-1 CRD mutant LLEHE (amino acids 81-85) to HLHHS (receptor)
chain: B8 chain with L50H, E52H, E54S
  loss of Wnt3 antagonist activity relative to SFRP-1 (TCF-Luciferase reporter) (% loss of activity): 30

B11: SFRP-1 tyrosine 73 to asparagine mutant (receptor)
chain: B8 chain with Y42N
  Wnt antagonist function compared to the wild type SFRP-1 (TCF-Luciferase reporter) (% of wild type SFRP-1): 40

B12: SFRP-1 CRD mutant KKMVL to NMTKM (receptor)
chain: B8 chain with K43N, K44M, M45T, V46K, L47M
  loss of Wnt3 antagonist activity relative to SFRP-1 (TCF-Luciferase reporter) (% loss of activity): 60

B13: SFRP-1 tyrosine 73 to phenylalanine mutant (receptor)
chain: B8 chain with Y42F
  loss of Wnt antagonist function relative to SFRP-1 (TCF-Luciferase reporter) (% loss of function): 20

B14: SFRP-1 hyaluronan-binding domain mutant, distal lysine residues to alanine (receptor)
chain: B8 chain with K208A, K209A, K210A, K213A, K214A
  loss of Wnt3 antagonist activity relative to SFRP-1 (TCF-Luciferase reporter) (% loss of activity): 15

B15: SFRP-1 CRD mutant … to … (receptor)
chain: B8 chain with H38K, N39S, V40L, G41P, Y42W, K43N, K44M, M45T, V46K, L47M
  loss of Wnt3 antagonist activity relative to SFRP-1 (TCF-Luciferase reporter) (% loss of activity): 45

B16: SFRP-1 tyrosine 73 to aspartate mutant (receptor)
chain: B8 chain with Y42D
  Wnt antagonist function compared to the wild type SFRP-1 (TCF-Luciferase reporter) (% of wild type SFRP-1): 40

B17: SFRP-1 tyrosine 73 to alanine mutant (receptor)
chain: B8 chain with Y42A
  Wnt antagonist function compared to the wild type SFRP-1 (TCF-Luciferase reporter) (% of wild type SFRP-1): 40

B18: SFRP-1 mutant with a total of 10 lysine residues in the hyaluronan domain changed into alanine (receptor)
chain: B8 chain with K197A, K198A, K199A, K200A, K203A, K208A, K209A, K210A, K213A, K214A
  loss of Wnt3 antagonist activity relative to SFRP-1 (TCF-Luciferase reporter) (% loss of activity): 35
